± gives the standard error. For part of these data: Variants at the floor of the assay were thinned out.
B1: glmS ribozyme (parent)
chain: AUAAAAGCGCCAGAACUACAGAAAUGUAGUUGACGAGGAGGAGGUUUAUCGAAUUUUCGGCGGAUGCCUCCAAA

Columns and labels:
Settings in all cases: with glucosamine-6-phosphate
[1] = variants of: B1; assay: kcat; higher = faster cleavage; RNA array
Outline: (§1)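 kcat and KM were obtained from weighted Michaelis–Menten fits across concentrations of kobs values. Those came from one- or two-exponential decay fits to per-tile medians normalised to baseline and to non-cleaving reference variants. The variants were barcoded ribozymes transcribed in situ by E. coli RNA polymerase on sequenced MiSeq chips and tracked through a hybridised Cy3 probe at 37 °C, with 40 μM to 10 mM glucosamine-6-phosphate in HEPES/KCl/Mg(OAc)2 buffer flowed in.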

[2] = variants of: B1; assay: self-cleavage kobs at 40 uM GlcN6P; higher = faster cleavage; RNA array
Outline: as §1

[3] = variants of: B1; assay: self-cleavage kobs at 160 uM GlcN6P; higher = faster cleavage; RNA array
Outline: as §1

[4] = variants of: B1; assay: self-cleavage kobs at 10000 uM GlcN6P; higher = faster cleavage; RNA array
Outline: as §1

[5] = variants of: B1; assay: self-cleavage kobs at 640 uM GlcN6P; higher = faster cleavage; RNA array
Outline: as §1

[6] = variants of: B1; assay: self-cleavage kobs at 2500 uM GlcN6P; higher = faster cleavage; RNA array
Outline: as §1

[7] = variants of: B1; assay: KM; higher = weaker cofactor use; RNA array
Outline: as §1

Variant | kcat [1] | self-cleavage kobs at 40 uM GlcN6P [2] | self-cleavage kobs at 160 uM GlcN6P [3] | self-cleavage kobs at 10000 uM GlcN6P [4] | self-cleavage kobs at 640 uM GlcN6P [5] | self-cleavage kobs at 2500 uM GlcN6P [6] | KM [7]
C11U A36C | < 1e-05 s⁻¹ | < 1e-05 s⁻¹ | < 1e-05 s⁻¹ | < 1e-05 s⁻¹ |  |  | 
A12G A33U | 1.86e-05 ± 6.4e-06 s⁻¹ | < 1e-05 s⁻¹ |  | < 1e-05 s⁻¹ |  |  | 
A12G G29C | 0.000167 ± 5.4e-05 s⁻¹ |  |  | 0.000123 ± 1.4e-05 s⁻¹ | 3.94e-05 ± 1.1e-05 s⁻¹ | 4.98e-05 ± 1.3e-05 s⁻¹ | 
A12U G44A | 0.00153 ± 0.00047 s⁻¹ |  | 8.78e-05 ± 1.3e-05 s⁻¹ | 0.000973 ± 0.0002 s⁻¹ | 0.000437 ± 5.9e-05 s⁻¹ | 0.00103 ± 0.00013 s⁻¹ | 2.2 ± 0.96 mM
A12U C67U C70G | 2.06e-05 ± 6.6e-06 s⁻¹ |  |  |  |  |  | 
C11U C61U | < 1e-05 s⁻¹ | < 1e-05 s⁻¹ |  | < 1e-05 s⁻¹ | < 1e-05 s⁻¹ |  | 0.122 ± 0.0082 mM
A12G G32U | 0.00313 ± 0.00012 s⁻¹ |  | 4.1e-05 ± 8.1e-06 s⁻¹ | 0.00144 ± 0.00014 s⁻¹ | 0.000164 ± 1.8e-05 s⁻¹ | 0.00055 ± 5.4e-05 s⁻¹ | 
A12C U47A G60A | < 1e-05 s⁻¹ |  |  |  |  |  | 
A12U A33U C67U | 0.000242 ± 4.7e-05 s⁻¹ |  |  | 0.000146 ± 2.9e-05 s⁻¹ |  |  | 6.52 ± 2.6 mM
A12U C70U | 0.00743 ± 0.0034 s⁻¹ | 0.00232 ± 0.00023 s⁻¹ | 0.0134 ± 0.0027 s⁻¹ |  | 0.0108 ± 0.0021 s⁻¹ | 0.0055 ± 0.0012 s⁻¹ | 
A12U G60U G66C C68U | < 1e-05 s⁻¹ |  |  | < 1e-05 s⁻¹ |  |  | 
A12G A33G U57A G59U | < 1e-05 s⁻¹ |  |  |  | < 1e-05 s⁻¹ | < 1e-05 s⁻¹ | 
C11U G38A G41A A42G | 1.14e-05 ± 5.7e-06 s⁻¹ | < 1e-05 s⁻¹ | < 1e-05 s⁻¹ |  |  |  | 
A12G G38U A39U | < 1e-05 s⁻¹ | < 1e-05 s⁻¹ |  |  | < 1e-05 s⁻¹ |  | 
A12C G29A | 0.00648 ± 0.0024 s⁻¹ | 0.000188 ± 3.3e-05 s⁻¹ | 0.000322 ± 0.00011 s⁻¹ | 0.00557 ± 0.00097 s⁻¹ | 0.00107 ± 0.00022 s⁻¹ | 0.00331 ± 0.00067 s⁻¹ | 
A12C G29C | 0.00327 ± 0.00068 s⁻¹ | 6.03e-05 ± 6.2e-06 s⁻¹ | 0.000193 ± 2.7e-05 s⁻¹ | 0.00271 ± 0.00022 s⁻¹ | 0.000508 ± 5.3e-05 s⁻¹ | 0.00139 ± 0.00023 s⁻¹ | 2.77 ± 0.82 mM
C11U A39U | 0.00145 ± 0.00027 s⁻¹ |  | 4.38e-05 ± 1.1e-05 s⁻¹ | 0.00102 ± 0.00011 s⁻¹ | 0.000277 ± 4.8e-05 s⁻¹ | 0.000641 ± 0.00011 s⁻¹ | 3.78 ± 1.2 mM

Variant | kcat [1] | self-cleavage kobs at 40 uM GlcN6P [2] | self-cleavage kobs at 160 uM GlcN6P [3] | self-cleavage kobs at 10000 uM GlcN6P [4] | self-cleavage kobs at 640 uM GlcN6P [5] | self-cleavage kobs at 2500 uM GlcN6P [6] | KM [7]
C11U A39C | 0.000759 ± 0.00011 s⁻¹ |  |  | 0.00051 ± 5.5e-05 s⁻¹ | 8.75e-05 ± 1.3e-05 s⁻¹ | 0.000299 ± 5e-05 s⁻¹ | 4.65 ± 1.1 mM
C11U C58A | 5.6e-05 ± 2e-06 s⁻¹ |  |  | 5.15e-05 ± 8.2e-06 s⁻¹ |  | 4.48e-05 ± 1.1e-05 s⁻¹ | 0.753 ± 0.17 mM
C11U A53U U54C C58A | 1.72e-05 ± 2.3e-06 s⁻¹ |  |  |  | < 1e-05 s⁻¹ |  | 
A12G G66U | 0.000245 ± 7.9e-05 s⁻¹ |  |  | 9.94e-05 ± 9.7e-06 s⁻¹ |  | 3.43e-05 ± 7.2e-06 s⁻¹ | 
A12U G51A | 1.05e-05 ± 2.6e-06 s⁻¹ |  |  |  |  |  | 
A12U C71U | 0.0948 ± 0.017 s⁻¹ | 0.00207 ± 0.00018 s⁻¹ | 0.00891 ± 0.0017 s⁻¹ | 0.0826 ± 0.025 s⁻¹ | 0.0214 ± 0.0049 s⁻¹ | 0.0611 ± 0.02 s⁻¹ | 1.79 ± 0.35 mM
A12U A33C | 0.00204 ± 0.00049 s⁻¹ |  | 2.87e-05 ± 1.3e-05 s⁻¹ | 0.00113 ± 0.00019 s⁻¹ | 0.000178 ± 3.4e-05 s⁻¹ | 0.000501 ± 9.3e-05 s⁻¹ | 7.81 ± 2.6 mM
A12U A39C A52G | 0.000172 ± 2.4e-05 s⁻¹ |  |  | 0.00015 ± 2.7e-05 s⁻¹ | 4.67e-05 ± 1.3e-05 s⁻¹ | 8.04e-05 ± 1.8e-05 s⁻¹ | 2.14 ± 0.68 mM
A12U G32U | 0.000501 ± 4.8e-05 s⁻¹ |  | 2.63e-05 ± 1.2e-05 s⁻¹ | 0.000345 ± 3.4e-05 s⁻¹ | 6.09e-05 ± 8.4e-06 s⁻¹ | 0.000196 ± 2.1e-05 s⁻¹ | 4.27 ± 0.69 mM
A12U U31C | 0.011 ± 0.0038 s⁻¹ | 0.000254 ± 4.3e-05 s⁻¹ | 0.000727 ± 0.00017 s⁻¹ | 0.0101 ± 0.0026 s⁻¹ | 0.00178 ± 0.00062 s⁻¹ |  | 2.07 ± 0.88 mM
C11U U30A | 0.00152 ± 0.00047 s⁻¹ | 8.01e-05 ± 1.1e-05 s⁻¹ | 0.000252 ± 4.8e-05 s⁻¹ | 0.0018 ± 0.00027 s⁻¹ | 0.000433 ± 7.8e-05 s⁻¹ | 0.0011 ± 0.00021 s⁻¹ | 0.931 ± 0.45 mM
A12G U47A | 0.00138 ± 0.00029 s⁻¹ |  |  | 0.000864 ± 0.00013 s⁻¹ | 0.000152 ± 1.9e-05 s⁻¹ | 0.000455 ± 7.1e-05 s⁻¹ | 5.5 ± 1.6 mM
A12G U47C | 0.000813 ± 9.1e-05 s⁻¹ |  | 3.52e-05 ± 1.3e-05 s⁻¹ | 0.000577 ± 6.1e-05 s⁻¹ | 0.000111 ± 1.5e-05 s⁻¹ | 0.000412 ± 8.3e-05 s⁻¹ | 3.82 ± 0.72 mM
A12C A23C U54G C70A | 0.00013 ± 1.8e-05 s⁻¹ | 8.19e-05 ± 2.8e-05 s⁻¹ |  | 0.000154 ± 2.8e-05 s⁻¹ | 0.000146 ± 2.1e-05 s⁻¹ | 0.000103 ± 1.9e-05 s⁻¹ | 
A12U G13A C50G C67U | 0.000171 ± 2.5e-05 s⁻¹ | 0.000107 ± 2.3e-05 s⁻¹ | 0.000201 ± 5.7e-05 s⁻¹ | 0.000124 ± 3.4e-05 s⁻¹ | 0.000169 ± 4.2e-05 s⁻¹ | 0.000208 ± 3.6e-05 s⁻¹ | 
C11U A14U G38A C50U U65G | 2.42e-05 ± 9.7e-06 s⁻¹ |  |  |  |  |  | 
C11U G29A | 0.000628 ± 0.00013 s⁻¹ |  |  | 0.000474 ± 5.6e-05 s⁻¹ | 9.17e-05 ± 1.1e-05 s⁻¹ | 0.000194 ± 3e-05 s⁻¹ | 4.19 ± 1.4 mM

— the supplement of paper PMC7125110
